Measured values reported in IntAct's records for PubMed 22483112.

Target: myh9_human MYH9 (UniProt P35579)
Sequence (P35579 whole entry): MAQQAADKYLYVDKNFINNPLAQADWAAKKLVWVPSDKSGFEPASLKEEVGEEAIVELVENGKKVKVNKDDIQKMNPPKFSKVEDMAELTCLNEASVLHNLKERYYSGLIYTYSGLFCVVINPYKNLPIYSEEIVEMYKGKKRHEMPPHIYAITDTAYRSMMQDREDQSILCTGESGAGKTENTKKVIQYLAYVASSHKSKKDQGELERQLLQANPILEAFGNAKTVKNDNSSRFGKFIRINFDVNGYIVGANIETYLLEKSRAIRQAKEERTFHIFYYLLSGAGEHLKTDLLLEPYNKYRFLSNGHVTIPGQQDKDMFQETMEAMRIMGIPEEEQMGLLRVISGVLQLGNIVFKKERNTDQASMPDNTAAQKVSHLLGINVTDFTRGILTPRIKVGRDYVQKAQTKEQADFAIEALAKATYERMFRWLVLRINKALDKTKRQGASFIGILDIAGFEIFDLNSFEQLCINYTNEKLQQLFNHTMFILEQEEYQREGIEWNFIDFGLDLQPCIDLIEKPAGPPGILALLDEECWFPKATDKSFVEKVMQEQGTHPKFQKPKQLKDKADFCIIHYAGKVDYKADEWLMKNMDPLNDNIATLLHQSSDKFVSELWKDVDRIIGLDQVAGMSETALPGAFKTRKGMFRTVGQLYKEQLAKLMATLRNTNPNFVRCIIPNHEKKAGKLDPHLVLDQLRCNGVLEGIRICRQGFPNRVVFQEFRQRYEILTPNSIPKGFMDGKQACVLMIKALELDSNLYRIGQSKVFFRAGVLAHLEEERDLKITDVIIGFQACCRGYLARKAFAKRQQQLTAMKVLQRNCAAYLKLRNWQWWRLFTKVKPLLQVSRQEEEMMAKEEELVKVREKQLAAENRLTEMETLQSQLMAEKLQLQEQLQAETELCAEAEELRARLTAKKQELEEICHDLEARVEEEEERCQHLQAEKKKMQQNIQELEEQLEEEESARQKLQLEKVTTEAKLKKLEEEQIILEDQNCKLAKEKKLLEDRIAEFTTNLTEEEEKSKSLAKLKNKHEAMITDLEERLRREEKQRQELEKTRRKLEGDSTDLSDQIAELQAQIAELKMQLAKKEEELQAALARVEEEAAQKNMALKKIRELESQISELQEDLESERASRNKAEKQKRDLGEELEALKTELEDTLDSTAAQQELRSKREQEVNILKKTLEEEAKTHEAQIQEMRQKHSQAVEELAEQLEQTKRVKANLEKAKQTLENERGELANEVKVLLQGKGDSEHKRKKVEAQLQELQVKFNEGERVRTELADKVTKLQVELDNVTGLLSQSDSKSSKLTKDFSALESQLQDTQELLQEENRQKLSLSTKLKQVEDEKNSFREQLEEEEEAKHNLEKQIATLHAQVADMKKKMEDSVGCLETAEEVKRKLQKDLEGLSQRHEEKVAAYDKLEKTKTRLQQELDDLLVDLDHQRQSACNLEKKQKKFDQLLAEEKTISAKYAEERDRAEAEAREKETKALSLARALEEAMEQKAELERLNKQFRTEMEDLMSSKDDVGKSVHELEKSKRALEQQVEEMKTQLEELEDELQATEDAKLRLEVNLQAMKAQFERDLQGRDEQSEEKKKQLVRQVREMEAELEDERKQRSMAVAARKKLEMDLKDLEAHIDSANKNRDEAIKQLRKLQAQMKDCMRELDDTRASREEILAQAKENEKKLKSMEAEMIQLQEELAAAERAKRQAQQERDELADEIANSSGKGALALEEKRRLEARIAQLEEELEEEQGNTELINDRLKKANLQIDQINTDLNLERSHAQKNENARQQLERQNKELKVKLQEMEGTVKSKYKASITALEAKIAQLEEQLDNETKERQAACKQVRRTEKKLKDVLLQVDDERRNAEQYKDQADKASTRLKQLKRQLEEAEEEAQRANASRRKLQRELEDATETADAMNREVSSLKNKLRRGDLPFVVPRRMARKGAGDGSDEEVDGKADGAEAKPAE

Protein S100-A4 (Homo sapiens), P26447 C81D, sequence (P26447 whole entry C81D): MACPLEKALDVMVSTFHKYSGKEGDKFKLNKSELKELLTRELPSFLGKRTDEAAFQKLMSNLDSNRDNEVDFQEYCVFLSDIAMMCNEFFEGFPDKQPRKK

Protein S100-A4 (Homo sapiens), P26447 V77D
effect of a mutation on the interaction: disrupting interaction strength

Protein S100-A4 (Homo sapiens), P26447 C81D
effect of a mutation on the interaction: disrupting interaction strength
